According to US20230406951A1 (Pfizer, published 2023):
Numbering of substitutions follows the chain as printed.

T1: human TNFR2 (human, UniProt P20333 23-461)
T1 construct: expressed on the surface of CHO cells; also called HuTNFR2; TNFRSF1B
T1 sequence: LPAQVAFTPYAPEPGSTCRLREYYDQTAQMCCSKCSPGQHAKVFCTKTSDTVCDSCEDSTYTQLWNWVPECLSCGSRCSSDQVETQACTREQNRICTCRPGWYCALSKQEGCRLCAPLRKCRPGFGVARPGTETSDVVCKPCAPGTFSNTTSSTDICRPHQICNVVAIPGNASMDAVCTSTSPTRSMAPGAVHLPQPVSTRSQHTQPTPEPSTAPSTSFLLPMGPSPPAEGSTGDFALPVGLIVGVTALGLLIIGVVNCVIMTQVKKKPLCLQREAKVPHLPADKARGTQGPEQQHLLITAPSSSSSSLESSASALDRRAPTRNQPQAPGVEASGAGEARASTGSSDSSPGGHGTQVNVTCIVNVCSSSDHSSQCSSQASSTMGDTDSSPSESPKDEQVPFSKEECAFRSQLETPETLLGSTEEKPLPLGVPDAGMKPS

B1: IgG 2052 (antibody, name in Kabat numbering, V domains shown)
VH: QVQLVQSGAEVKKPGASVKVSCKVSGFSFPSSGVDWVRQAPGQGLEWLGVTHGSGSTHYNQKFQGRVTITKDTSKSTVYMELSSLRSEDTAVYYCASGEQDEGFVYWGQGTLVTVSS
VL: DIQLTQSPSFLSASVGDRVTITCKASQNVGTAVAWYQQKPGKAPKLLIYAASTLQSGVPSRFSGSGSGTEFTLTISSLQPEDFATYYCLQYSSYPLTFGGGTKVEIKR
notes: IgG
B2: TetraFab 2171 (antibody)
heavy: QVQLVQSGAEVKKPGASVKVSCKVSGFSFPSSGVDWVRQAPGQGLEWLGVTRGEGSTHYNQKFQGRVTITKDTSKSTVYMELSSLRSEDTAVYYCASGEWDEGFVYWGQGTLVTVSSASTKGPSVFPLAPSSKSTSGGTAALGCLVKDYFPEPVTVSWNSGALTSGVHTFPAVLQSSGLYSLSSVVTVPSSSLGTQTYICNVNHKPSNTKVDKKVEPKSCGGGGSQVQLVQSGAEVKKPGASVKVSCKVSGFSFPSSGVDWVRQAPGQGLEWLGVTRGEGSTHYNQKFQGRVTITKDTSKSTVYMELSSLRSEDTAVYYCASGEWDEGFVYWGQGTLVTVSSASTKGPSVFPLAPSSKSTSGGTAALGCLVKDYFPEPVTVSWNSGALTSGVHTFPAVLQSSGLYSLSSVVTVPSSSLGTQTYICNVNHKPSNTKVDKKVEPKSCDKTHTCPPCPAPEAAGAPSVFLFPPKPKDTLMISRTPEVTCVVVDVSHEDPEVKFNWYVDGVEVHNAKTKPREEQYNSTYRVVSVLTVLHQDWLNGKEYKCKVSNKALPAPIEKTISKAKGQPREPQVYTLPPSREEMTKNQVSLTCLVKGFYPSDIAVEWESNGQPENNYKTTPPVLDSDGSFFLYSKLTVDKSRWQQGNVFSCSVMHEALHNHYTQKSLSLSPGK
light: DIQLTQSPSFLSASVGDRVTITCKASQNVGTAVAWYQQKPGKAPKLLIYAASTLQSGVPSRFSGSGSGTEFTLTISSLQPEDFATYYCLQYSSYPLTFGGGTKVEIKRTVAAPSVFIFPPSDEQLKSGTASVVCLLNNFYPREAKVQWKVDNALQSGNSQESVTEQDSKDSTYSLSSTLTLSKADYEKHKVYACEVTHQGLSSPVTKSFNRGEC
notes: TetraFab
B3: TetraFab 2054 (antibody)
heavy: B2 heavy with R52K, E54Q, R277K, E279Q
light: B2 light with L89Q
notes: TetraFab
B4: TetraFab 2055 (antibody)
heavy: B2 heavy
light: B2 light with L89Q
notes: TetraFab
B5: TetraFab 2056 (antibody)
heavy: B2 heavy with R52F, G53Q, R277F, G278Q
light: B2 light with L89Q
notes: TetraFab
B6: TetraFab 2057 (antibody)
heavy: B2 heavy with R52L, E54H, R277L, E279H
light: B2 light with L89Q
notes: TetraFab
B7: TetraFab 2058 (antibody)
heavy: B2 heavy with R52H, E54S, R277H, E279S
light: B2 light with L89Q
notes: TetraFab
B8: TetraFab 2059 (antibody)
heavy: B2 heavy with R52W, E54V, W100S, D101T, R277W, E279V, W325S, D326T
light: B2 light with L89Q
notes: TetraFab
B9: TetraFab 2060 (antibody)
heavy: B2 heavy with R52W, E54V, W100H, R277W, E279V, W325H
light: B2 light with L89Q
notes: TetraFab
B10: TetraFab 2063 (antibody)
heavy: B2 heavy with R52K, E54Q, W100S, D101T, R277K, E279Q, W325S, D326T
light: B2 light with L89Q
notes: TetraFab
B11: TetraFab 2065 (antibody)
heavy: B2 heavy with R52K, E54Q, W100R, R277K, E279Q, W325R
light: B2 light with L89Q
notes: TetraFab
B12: TetraFab 2066 (antibody)
heavy: B2 heavy with R52K, E54Q, W100Q, R277K, E279Q, W325Q
light: B2 light with L89Q
notes: TetraFab
B13: TetraFab 2069 (antibody)
heavy: B2 heavy with W100R, W325R
light: B2 light with L89Q
notes: TetraFab
B14: TetraFab 2075 (antibody)
heavy: B2 heavy with R52L, E54H, W100S, D101T, R277L, E279H, W325S, D326T
light: B2 light with L89Q
notes: TetraFab
B15: TetraFab 2076 (antibody)
heavy: B2 heavy with R52L, E54H, W100H, R277L, E279H, W325H
light: B2 light with L89Q
notes: TetraFab
B16: TetraFab 2079 (antibody)
heavy: B2 heavy with R52H, E54S, W100S, D101T, R277H, E279S, W325S, D326T
light: B2 light with L89Q
notes: TetraFab
B17: TetraFab 2142 (antibody)
heavy: B2 heavy
light: B2 light with Y91K
notes: TetraFab
B18: TetraFab 2143 (antibody)
heavy: B2 heavy with R52F, G53Q, R277F, G278Q
light: B2 light with Y91K
notes: TetraFab
B19: TetraFab 2147 (antibody)
heavy: B2 heavy with R52W, E54V, W100H, R277W, E279V, W325H
light: B2 light with Y91K
notes: TetraFab
B20: TetraFab 2150 (antibody)
heavy: B2 heavy with R52K, E54Q, W100S, D101T, R277K, E279Q, W325S, D326T
light: B2 light with Y91K
notes: TetraFab
B21: TetraFab 2153 (antibody)
heavy: B2 heavy with R52K, E54Q, W100Q, R277K, E279Q, W325Q
light: B2 light with Y91K
notes: TetraFab
B22: TetraFab 2154 (antibody)
heavy: B2 heavy with W100S, D101T, W325S, D326T
light: B2 light with Y91K
notes: TetraFab
B23: TetraFab 2156 (antibody)
heavy: B2 heavy with W100R, W325R
light: B2 light with Y91K
notes: TetraFab
B24: TetraFab 2162 (antibody)
heavy: B2 heavy with R52L, E54H, W100S, D101T, R277L, E279H, W325S, D326T
light: B2 light with Y91K
notes: TetraFab
B25: TetraFab 2163 (antibody)
heavy: B2 heavy with R52L, E54H, W100H, R277L, E279H, W325H
light: B2 light with Y91K
notes: TetraFab
B26: TetraFab 2167 (antibody)
heavy: B2 heavy with R52H, E54S, W100H, R277H, E279S, W325H
light: B2 light with Y91K
notes: TetraFab
B27: TetraFab 2172 (antibody)
heavy: B2 heavy with R52F, G53Q, R277F, G278Q
light: B2 light
notes: TetraFab
B28: TetraFab 2173 (antibody)
heavy: B2 heavy with R52L, E54H, R277L, E279H
light: B2 light
notes: TetraFab
B29: TetraFab 2174 (antibody)
heavy: B2 heavy with R52H, E54S, R277H, E279S
light: B2 light
notes: TetraFab
B30: TetraFab 2175 (antibody)
heavy: B2 heavy with R52W, E54V, W100S, D101T, R277W, E279V, W325S, D326T
light: B2 light
notes: TetraFab
B31: TetraFab 2176 (antibody)
heavy: B2 heavy with R52W, E54V, W100H, R277W, E279V, W325H
light: B2 light
notes: TetraFab
B32: TetraFab 2179 (antibody)
heavy: B2 heavy with R52K, E54Q, W100S, D101T, R277K, E279Q, W325S, D326T
light: B2 light
notes: TetraFab
B33: TetraFab 2182 (antibody)
heavy: B2 heavy with R52K, E54Q, W100Q, R277K, E279Q, W325Q
light: B2 light
notes: TetraFab
B34: TetraFab 2185 (antibody)
heavy: B2 heavy with W100R, W325R
light: B2 light
notes: TetraFab
B35: TetraFab 2191 (antibody)
heavy: B2 heavy with R52L, E54H, W100S, D101T, R277L, E279H, W325S, D326T
light: B2 light
notes: TetraFab
B36: TetraFab 2192 (antibody)
heavy: B2 heavy with R52L, E54H, W100H, R277L, E279H, W325H
light: B2 light
notes: TetraFab

Molecular target: T1, human TNFR2
Assay: binding to human TNFR2 CHO cells

Binder | binding result
B1 | no binding
B2 | no binding
B3 | no binding
B4 | no binding
B5 | no binding
B6 | no binding
B7 | no binding
B8 | no binding
B9 | no binding
B10 | no binding
B11 | no binding
B12 | no binding
B13 | no binding
B14 | no binding
B15 | no binding
B16 | no binding
B17 | no binding
B18 | no binding

Binder | binding result
B19 | no binding
B20 | no binding
B21 | no binding
B22 | no binding
B23 | no binding
B24 | no binding
B25 | no binding
B26 | no binding
B27 | no binding
B28 | no binding
B29 | no binding
B30 | no binding
B31 | no binding
B32 | no binding
B33 | no binding
B34 | no binding
B35 | no binding
B36 | no binding
